Assay results: patent US20230399394A1 (SUNSHINE GUOJIAN PHARMACEUTICAL SHANGHAI, published 2023)
Changes are numbered by the printed parent chain.

T1: Cynomolgus IL-33-his (cynomolgus, UniProt A0A2K5W3I1 112-269, biotinylated in the ELISA of Example 6)
T1 construct: Bought protein; also called cynomolgus IL-33 protein; Cynomolgus monkeys IL-33
T1 sequence: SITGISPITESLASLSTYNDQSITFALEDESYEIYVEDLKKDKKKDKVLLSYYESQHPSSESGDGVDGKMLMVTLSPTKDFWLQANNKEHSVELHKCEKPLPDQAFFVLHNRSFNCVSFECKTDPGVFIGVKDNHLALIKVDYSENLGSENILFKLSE

T2: IL-33 protein without any mutation (WT) (human, UniProt O95760 112-270)
T2 construct: Control of the alanine scan (four runs WT-1 to WT-4); also called WT-1; WT-2
T2 sequence: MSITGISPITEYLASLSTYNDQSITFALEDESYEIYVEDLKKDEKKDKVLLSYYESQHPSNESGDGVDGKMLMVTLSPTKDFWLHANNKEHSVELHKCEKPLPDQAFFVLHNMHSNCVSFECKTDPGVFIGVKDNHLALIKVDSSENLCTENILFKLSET

T3: IL-33 mutant protein S52A (human, UniProt O95760 112-270)
T3 construct: Prokaryotic expression
T3 chain: T2 sequence with S52A

T4: IL-33 mutant protein K48A (human, UniProt O95760 112-270)
T4 construct: Prokaryotic expression
T4 chain: T2 sequence with K48A

T5: IL-33 mutant protein N61A (human, UniProt O95760 112-270)
T5 chain: T2 sequence with N61A

T6: IL-33 mutant protein D68A (human, UniProt O95760 112-270)
T6 construct: Prokaryotic expression
T6 chain: T2 sequence with D68A

B1: 874F7 (antibody, V domains shown)
VH: QVQLKESGPGLVAPSHSLSITCNVSGFSLSKYGVHWIRQIPGRGLDWLGVLRAGGSTGYNSALMSRLSISKDSSKSQVFLKMNDLRTDDTAVYFCVRDHYYYSSYGGFVYWGQGTLVTVSA
VL: DIQMTQSPASQSASLGESVTITCLASQTIGAWLAWYRQQPGKSPQLLIYAATRLADGVPSRFSGSGSGTEFSFKINNLQAEDFVSYYCQQLDSSPYTFGGGTRLEM
notes: Murine hybridoma antibody purified on Protein G; also called murine antibody 874F7
B2: 874F7-Hu1 (antibody, human IgG4 S228P, kappa)
heavy: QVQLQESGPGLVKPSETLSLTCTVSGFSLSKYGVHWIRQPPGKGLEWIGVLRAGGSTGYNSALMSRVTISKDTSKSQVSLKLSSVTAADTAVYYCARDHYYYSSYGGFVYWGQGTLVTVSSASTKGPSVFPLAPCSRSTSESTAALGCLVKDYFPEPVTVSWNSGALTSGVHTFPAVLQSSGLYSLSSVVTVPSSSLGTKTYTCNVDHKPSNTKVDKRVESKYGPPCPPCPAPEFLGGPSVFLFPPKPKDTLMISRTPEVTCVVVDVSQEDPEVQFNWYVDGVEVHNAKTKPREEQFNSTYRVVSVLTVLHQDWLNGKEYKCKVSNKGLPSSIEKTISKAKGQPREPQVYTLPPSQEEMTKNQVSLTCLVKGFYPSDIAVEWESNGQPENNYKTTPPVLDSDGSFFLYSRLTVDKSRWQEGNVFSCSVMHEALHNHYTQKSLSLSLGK
light: DIQMTQSPSSVSASVGDRVTITCLASQTIGAWLAWYQQKPGKSPKLLIYAATRLADGVPSRFSGSGSGTDFTLTISSLQPEDFATYYCQQLDSSPYTFGQGTKVEIKRTVAAPSVFIFPPSDEQLKSGTASVVCLLNNFYPREAKVQWKVDNALQSGNSQESVTEQDSKDSTYSLSSTLTLSKADYEKHKVYACEVTHQGLSSPVTKSFNRGEC
notes: also called 874F7-Hul; humanized antibody 874F7-Hu1

Legend:
Cynomolgus IL-33-his = molecular target: T1, Cynomolgus IL-33-his; test: indirect ELISA, biotinylated cynomolgus IL-33-his on streptavidin plate
Method: The binding ability of murine antibody to cynomolgus IL-33 was determined by indirect enzyme-linked immunosorbent assay (ELISA). The specific methods were as follows: The plate was pre-coated by biotin-avidin (SA) which was diluted in coating solution (50 mM carbonate coating buffer, pH 9.6) to 2 μg/ml at 4° C. overnight. The plate was blocked with 5% skim milk powder at 37° C. for 2 hours, and stored at −80° C. for later use. Biotinylated recombinant cynomolgus IL-33-his protein was diluted to 1 μg/ml in coating solution (50 mM carbonate coating buffer, pH 9.6) and was added at 100 μl/well to the pre-coated SA plate for 0.5 h at 37° C. After washing the plate with PBST for 3 times, the antibodies to be tested were diluted by gradient with 1% BSA buffer and added into the blocked plate with 100 μl/well, and incubated at 37° C. for 1 hour. The plate was washed with PBST for 3 times, and the HRP-labeled goat anti-mouse IgG was added and placed at 37° C. for 30 min. After washing the plate with PBST for 3 times, the plate was patted on the absorbent paper to remove residual droplets as far as possible. […] OD values were read at 450 nm on the microplate reader to analyze the binding ability of the antibody to the target antigen cynomolgus IL-33-his.

[1] = molecular target: T2, IL-33 protein without any mutation (WT); test: ELISA as Example 9; row WT-1, the reference itself
Method: (§1) SA protein was diluted to 2 μg/mL to coat ELISA plate at 100 μL/well overnight at 4° C. The plate was washed with PBST (PBS containing 0.05% Tween20) for 3 times, and blocked with 2% BSA prepared in PBS at 200 μL/well, at room temperature for 2 h. After the plate was washed twice with PBST, IL-33-his-biotin protein was diluted to 1 μg/mL with 1% BSA prepared in PBST, and was added to ELISA plate at 100 μL/well. The plate was incubated at room temperature for 1 h, and each monoclonal antibody was diluted with 1% BSA prepared in PBST in a 3-fold gradient. The highest concentration of antibody was 10 μg/mL, and the antibody was diluted for 12 gradients. Each diluted monoclonal antibody was added to ELISA wells with 100 μL/well, and the plate was incubated at room temperature for 1 h. Each sample was added to duplicate wells in parallel. The plate was washed with PBST for 3 times, and HRP-anti human IgG Fc secondary antibody prepared with PBST was diluted at an appropriate ratio, and was added to ELISA wells at 100 μL/well. […] Each reaction solution was shaken uniformly and OD450 nm was read on a microplate reader. The data was analyzed and EC₅₀ was calculated.
(§2) Subsequently, according to the experimental method of Example 9, the affinity of the above mutant proteins to 874F7-Hu1 was determined, and IL-33 proteins (WT-1, WT-2, WT-3, and WT-4) without any mutation were set as controls.

[2] = molecular target: T2, IL-33 protein without any mutation (WT); test: ELISA as Example 9; row WT-3
Method: as §1, §2

[3] = molecular target: T3, IL-33 mutant protein S52A; test: ELISA as Example 9; row S52A
Method: as §1, §2

[4] = molecular target: T3, IL-33 mutant protein S52A; test: ELISA as Example 9; row S52A against WT-2
Method: as §1, §2

[5] = molecular target: T4, IL-33 mutant protein K48A; test: ELISA as Example 9; row K48A against WT-2
Method: as §1, §2

[6] = molecular target: T5, IL-33 mutant protein N61A; test: ELISA as Example 9; row N61A against WT-3
Method: as §1, §2

[7] = molecular target: T6, IL-33 mutant protein D68A; test: ELISA as Example 9; row D68A
Method: as §1, §2

Row | Binder | EC50 (Cynomolgus IL-33-his) [nM] | Affinity decline ratio [1] [fold] | EC50 [2] [nM] | EC50 [3] [nM] | Affinity decline ratio [4] [fold] | Affinity decline ratio [5] [fold] | Affinity decline ratio [6] [fold] | EC50 [7] [nM]
1 | B1 | 0.03 | – | – | – | – | – | – | –
2 | B2 | – | 1 | 0.18 | 1.96 | 14.6 | 3.7 | 0.8 | 0.22
